Results reported in patent US20250277790A1.

What was measured:
[1] = target: L834R EGFR tagged with mTurquoise at the C-terminus, in plasma membrane-derived vesicles from transfected CHO cells (human) (UniProt P00533); assay: cell-based or functional assay
[2] = target: human EGFR tagged with the fluorescent protein mTurquoise at the C-terminus (wild-type), in plasma membrane-derived vesicles from transfected CHO cells (human) (UniProt P00533); assay: cell-based or functional assay

Chain of Epiregulin (1195EP025 CF, R&D Systems) (O14944 63-108 limits assumed): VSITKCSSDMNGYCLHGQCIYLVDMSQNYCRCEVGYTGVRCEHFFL

EC50 of Y1068 phosphorylation per EGFR molecule [1]	EC50 of Y1173 phosphorylation per EGFR molecule [1]	Etop of Y1068 phosphorylation per EGFR molecule [1]	Etop of Y1173 phosphorylation per EGFR molecule [1]	EC50 of Y1068 phosphorylation per EGFR molecule [2]	EC50 of Y1173 phosphorylation per EGFR molecule [2]	Etop of Y1068 phosphorylation per EGFR molecule [2]	Etop of Y1173 phosphorylation per EGFR molecule [2]	βlig (Y1068 vs Y1173), lig vs rho-mEGF [2]	Substance
5.8 nM	0.7 nM	0.2	0.09	19.5 nM	16.2 nM	0.43	0.16	-0.23	Epiregulin (1195EP025 CF, R&D Systems) (from UniProt O14944 63-108) (ligand)
3.2 nM	0.3 nM	0.17	0.12	3.4 nM	5.2 nM	0.59	0.17	0.13	TGFα (239A100, R&D Systems) (from UniProt P01135 40-89) (ligand)
